In PMC8612281, “Aromatic Dimer Dehydrogenases from Novosphingobium aromaticivorans Reduce Monoaromatic Diketones” (Applied and Environmental Microbiology, 2021):

B1: LigD (Novosphingobium aromaticivorans DSM 12444) (protein)
chain: MQSFENEIAFITGGASGAGFGQAQVFGRAGAKIVVADVRAEAVERAVAALKAEGIVAHGLVLDITDRQAYAGAADEVEQVFGAAPTLLFNTAGVNSFGPVEDTSYDDFDWIVGVNLGGVINGMVTFVPRMIASGRPGHIVTTSSLGGLMGSALAAPYSAAKAAVINLMESYRQGLDKHGIGVSVLCPANIKSNIAEASRLRPAQFGKSGYVENEESIASLHSIHQHGMDPVELAEHVKAGIVANQLYIIPYPEAKDGLRQHFDAIVDAVLPLEADPEGARARTEALNAWAADRARVFMEKNAAQKA
B2: LigL (Novosphingobium aromaticivorans DSM 12444) (protein)
chain: MGIETFAGRTAFVTGGASGIGLGIVKALARRDAFVVIADMRTDHISRALKALASAGLGESVAAVELDVTDRAAYASMARRMDEEFGGIDVLVNNAGVGVEGPILQATYPDWDFGLGVNLGGVVNGLQAMLPQMIAHGRGGHVVNTASLAATVVMPGHLAIYAAGKAAVLNLTENMRADLAGRGIGSSVLCPGFVRSNIHEAARNRPAHLREGSGFAASEQALSMRETGSEWMDPDAVGEMVADAILADQLYVITHGEFANRMRERAEALLAATPVCEMQF
B3: LigN (Novosphingobium aromaticivorans DSM 12444) (protein)
chain: MQNLPGKTAFVTGGASGIGLGIAKALLGAGMNVTIADIRQDHLDSAVAELGGGERVLAVKLDVTNRDQFAKAADATEAKFGKIHLLVNNAGVAVVGPTELATFADWDWVMGVNVNGTINGIVTILPRILAHGEGGHIVCTASMSALVPVAGTTIYSAGKAAVTAMMECMRPELEGRGVICSAFCPGAVQSNIADAAKTRPAELADTGYAEADKRRAAGGNFMHLYQTKEQVGERVLEGILNDELYILTHAEFLTGVEERGLATTAAVQTHLPENPEYKETFAALFRNPAITDEIARQNKLKETRKAGVEA

How the values were obtained:
Test in all cases: purified protein
purified protein [1] = substrate: COc1cc(C(O)C(CO)Oc2ccccc2OC)ccc1O; details: 0.1 mM NAD+, 0.1 μM enzyme, 25 mM Tris-HCl pH 8, 25 mM NaCl, oxidation
purified protein [2] = substrate: COc1cc(C(=O)C(C)=O)ccc1O; assay type: biochemical, Novosphingobium aromaticivorans; details: 0.1 mM NADH, 25 mM Tris-HCl pH 8, 25 mM NaCl, reduction of Cα ketone
purified protein [3] = substrate: COc1cc(C(O)C(C)O)ccc1O; assay type: biochemical, Novosphingobium aromaticivorans; details: 0.1 mM NAD+, 0.1 μM enzyme, 25 mM Tris-HCl pH 8, 25 mM NaCl, oxidation

| Protein | Km (purified protein [1]) [µM] | kcat (purified protein [1]) [s⁻¹] | Km (purified protein [2]; 0.1 μM enzyme) [µM] | kcat (purified protein [2]; 0.1 μM enzyme) [s⁻¹] | Km (purified protein [2]; 0.01 μM enzyme) [µM] | kcat (purified protein [2]; 0.01 μM enzyme) [s⁻¹] | Km (purified protein [3]) [µM] | kcat (purified protein [3]) [s⁻¹] |
| --- | --- | --- | --- | --- | --- | --- | --- | --- |
| B1 | 70 | 0.2 | 410 | 0.02 |  |  |  |  |
| B2 | 440 | 0.12 |  |  | 3400 | 1.44 | 1530 | 0.03 |
| B3 | 80 | 0.30 | 310 | 0.1 |  |  |  |  |
